Tested on: endogenous MMR activity
Assay: pCAR-OF β-galactosidase reporter assay for MMR deficiency (in situ X-gal staining)
Format: cell-based, human
Settings: PMS134 expressed from pEF vector in HEK293 cells
From the text: A method used to detect MMR deficiency in eukaryotic cells is to employ a reporter gene that has a polynucleotide repeat inserted within the coding region that disrupts its reading frame due to a frame shift. In the case where MMR is defective, the reporter gene will acquire random mutations (i.e. insertions and/or deletions) within the polynucleotide repeat yielding clones that contain a functional reporter gene. An example of the ability to alter desired genes via defective MMR comes from experiments using HEK293 cells (described above), where a mammalian expression construct containing a defective β-galactosidase gene (referred to as pCAR-OF) was transfected into 293PMS134 or 293vec cells as described above. The pCAR-OF vector consists of a β-galactosidase gene containing a 29-basepair poly-CA tract inserted at the 5′ end of its coding region, which causes the wild-type reading frame to shift out-of-frame. […] Another reporter vector called pCAR-IF contains a β-galactosidase in which a 27-bp poly-CA repeat was cloned into the same site as the pCAR-OF gene, but it is biologically active because the removal of a single repeat restores the open reading frame and produces a functional chimeric β-galactosidase polypeptide (not shown). […] Cells were scored positive if the colonies turned blue in the presence of X-gal substrate and scored negative if colonies remained white. […]

dominant negative effect on MMR: robust dominant negative effect
B1: PMS134: previously published dominant negative human PMS2 mismatch repair mutant (SEQ ID NO:11/12) (protein, listed as Homo sapiens)
chain: RGGSGVASMERAESSSTEPAKAIKPIDRKSVHQICSGQVVLSLSTAVKELVENSLDAGATNIDLKLKDYGVDLIEVSDNGCGVEEENFEGLTLKHHTSKIQEFADLTQVETFGFRGEALSSLCALSDVTISTCHASAKVGT

Reference: patent US7638334B2, “Method for generating engineered cells by homologously recombining segments having increased degeneracy” (Morphotek, Inc., priority 2002, dated 2009)
